From publication PMC3683152 (Neuron, 2013) come the findings set out here.

For assay [1], the target named is Dscam 7.13.25 isoform. In words: AlphaScreen or HTRF.
Assay [2] concerns the target T1, Ptp10D-AP (Drosophila, UniProt P35992 43-1197).
T1 sequence (looked up): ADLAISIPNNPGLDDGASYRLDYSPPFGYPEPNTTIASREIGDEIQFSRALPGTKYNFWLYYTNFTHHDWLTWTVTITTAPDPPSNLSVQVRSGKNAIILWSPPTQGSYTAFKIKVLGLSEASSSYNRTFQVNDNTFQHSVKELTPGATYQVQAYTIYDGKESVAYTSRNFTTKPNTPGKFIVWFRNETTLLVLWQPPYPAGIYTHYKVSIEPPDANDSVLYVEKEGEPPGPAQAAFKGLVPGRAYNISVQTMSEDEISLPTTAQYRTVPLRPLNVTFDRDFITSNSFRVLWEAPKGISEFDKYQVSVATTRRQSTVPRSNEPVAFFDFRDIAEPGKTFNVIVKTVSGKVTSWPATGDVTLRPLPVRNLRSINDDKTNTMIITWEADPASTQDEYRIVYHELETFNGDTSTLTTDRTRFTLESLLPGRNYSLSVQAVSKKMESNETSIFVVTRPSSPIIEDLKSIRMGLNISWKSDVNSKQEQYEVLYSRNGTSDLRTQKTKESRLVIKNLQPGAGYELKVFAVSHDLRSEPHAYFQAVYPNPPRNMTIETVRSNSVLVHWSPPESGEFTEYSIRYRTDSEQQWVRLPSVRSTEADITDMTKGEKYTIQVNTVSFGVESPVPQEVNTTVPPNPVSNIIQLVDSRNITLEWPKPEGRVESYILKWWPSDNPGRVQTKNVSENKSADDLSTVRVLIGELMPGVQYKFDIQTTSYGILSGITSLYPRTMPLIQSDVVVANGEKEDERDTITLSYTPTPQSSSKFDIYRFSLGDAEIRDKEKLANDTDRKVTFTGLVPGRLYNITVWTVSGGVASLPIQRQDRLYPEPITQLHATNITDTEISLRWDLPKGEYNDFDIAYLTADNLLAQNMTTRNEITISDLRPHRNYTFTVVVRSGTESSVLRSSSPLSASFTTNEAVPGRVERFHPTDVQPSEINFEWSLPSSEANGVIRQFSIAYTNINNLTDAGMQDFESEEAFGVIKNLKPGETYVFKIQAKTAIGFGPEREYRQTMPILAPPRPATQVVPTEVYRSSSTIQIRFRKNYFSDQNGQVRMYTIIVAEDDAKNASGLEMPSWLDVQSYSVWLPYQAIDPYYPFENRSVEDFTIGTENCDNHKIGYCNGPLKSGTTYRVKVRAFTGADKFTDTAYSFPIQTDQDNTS
Nature of the assay: AlphaScreen or HTRF.

Dscam 7.13.25 isoform (natural protein) gave a fold signal of homophilic binding over heterophilic binding of 7.13.25 to 7.8.25 in assay [1] of 178 fold.

B1: Sas-Fc (Fc fusion, Drosophila, UniProt Q04164 42-1635, looked up)
chain: APAGEDAAATTMPPLDTTTDAPDAVAATTTPATTAAEQSSSISSITTEAADGSTTSTTTTTEAANKSNATETDFTTNVPVASSLPEETSVRSTSIEPITSTEPTTTPRQETEGPDQHMVFSNTEPDQSHIQHIPLRDEHAESSGADDATTEMQRQREQDQQQNELNQISNEQDDVVKDLNNFRHPATLITASNSNSEENVEIESDKQVETTTTAVPAAATSTSTEATGTPPTGTPATSTSTVPNEREEDPYHVHILSENHDRLAEHEDYQMLSTSTEESSTTSTTSTTNSTTESGIVAGIVVSQENKATAEPSTATESTSISTSTTTAATAATSTTSRARAMHMNDPEDEAATTIMPDSESVPVINIVEGQHMLQQEDQKDEEEEGVVKESESSSTTEASTTTTEPSPFVAFAGEGRSAGGGNDIELFLHHNGSTHEQLMDLSDVSMDGDQNEGSSKTESSTTSTTTTTAQPETEMPKIVEITASGDTMQRECLANNKSYKHGELMERDCDERCTCNRGDWMCEPRCRGLSYPRGSQRSMANPNCLEKMVEEDECCRVMECSEPQLEPTVVATEGAAPSTNGTGESAVTLPTTDDEATPKPRTDCHYNSGVYKFRERLEIGCEQICHCAEGGVMDCRPRCPERNHTRLDKCVYVKDPKDVCCQLELCDVTLDDHEQQPTPLQSNNNEDPEEIDPFRFQEQARDAGGAKPTCTFKGAEYDVGQQFRDGCDQLCICNEQGIHCAKLECPSNFGLDVQDPHCIRWEPVPADFKPSPPNCCPESMRCVDNGTCSYQGVQIENWSPVPANLTGCDQHCYCENGRVECRAACPPVPALPPADLPCHPALARLLPIPDDECCKHWMCAPQIPKIGGAGQDEETEATSTHSSIPANETTTTTATANKSTSIPSKVPQIKKDEEKRPPASGAFYPTLDGKPPKSIGGLGIFEKPEKPEKAHKKVQHQQQQHQQQEQQEQQQHQNDVIFDGDRTEEQEEPLPPNGGFVPFQFGQQHPHQPHLGPYGFYNPVKPVYEDYNPYEPYDINPNGTPQGKPPPVPTSQSDLFNILGAEQPGHPVHPGHGGPPRIHPGQTQKDNHNLGPQVRIEQILQHLQQTVPGGPPPPPPHQQHQSLTPQLHPQQQQISQQHPGHYVPIVHSGVPPPPPGHGIAIVDGQTVAYESYPVIPGLGVPQHHPQQHQTTPQQHLQQTILPSSSTTSGLSTQASEHSLHQNQGKLAKQQQSGANNLQPDIEVHTLEAIDPRSIRIVFTVPQVYVNLHGRVELRYSNGPSNDTSTWEQQIFAPPEDLIATSQMEFDLPSLEPNSLYKVKITLILRDLNSQPTSSIYTVKTPPERTITPPPPFPDYRPDFQDIFKNVEDPELTVSETNASWLQLTWKKLGDDQMEYVDGVQLRYKELTGMIYSSTPLIHRTLTSYTIQNLQPDTGYEIGLYYIPLAGHGAELRAGHMIKVRTAQKVDVYGFDVTVNVTKVKTQSVEISWNGVPYPEDKFVHIYRAIYQSDAGKEDSSVFKVAKRDSTTGTLIMDLKPGTKYRLWLEMYLTNGNTKKSNVVNFITKPGGPATPGKTGKLLTAGTDQPVGDYYGPL
Turning to B1, the “signal-to-background ratio (Sas-Fc::10D-AP vs. Sas-Fc::69D-AP or Sas-Fc::blank)” value in assay [2] is ~6 fold.
